Source: publication PMC7308715

Target: N-ribosyltransferase from Archaeoglobus veneficus SNP6 (AvNRT) (Archaeoglobus veneficus SNP6)
Experiment: AUC; sedimentation velocity; 20 mM Tris-HCl, pH 8, 20 °C, 50,000 x g; profiles recorded at 292 nm; c(s) analysis with SEDFIT

- stoichiometry N: 4
Substance: N-ribosyltransferase from Archaeoglobus veneficus SNP6 (AvNRT) (enzyme)
